The source of these data is the supplement of paper PMC6755084.

First the molecules themselves.
B1: F1*; the commonest letter at each place (parent)
chain: GAGACCGCAACTGAAAAGTTGTTATCACTTGTCGTAAGACACTTTGGATGGGTTGAAGTTCTGCACGTAGAAGCAAAAGGC

The variants in this data set derive from B1. The data set is described as follows: fraction ligated after 30 min (ligated reads / total reads); higher = more ligase activity. The following applies: with F1*sub RNA substrate (template-directed ligation), 42 °C. The method, boiled down: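 Ligase ribozyme variants were made from oligo-pool templates by PCR amplification, T7 transcription and gel purification. After gel separation, ligated and unligated bands were reverse transcribed with barcoded primers and sequenced on a MiSeq, with core bases filtered at quality ≥20. The fraction ligated for each variant was the number of ligated reads divided by total reads.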
Consider GAGACCGCAACTGAAAAGTTGTTATCACTTGTCGTAAGGAACTTTGGATGGGTTGAAGTTCTGCACGTAGAAGCAAAAGGC [A39G C40A], for which the fraction ligated is 0.839.
The value for GAGACCGCAACTGAAAAGTTGTTATCACTTGTCGTAAGACACTGTGGATGGGTTGATGTTCTGCACGTAGAAGCAAAAGGC [T44G A57T] was 0.857; that for GAGACCGCAACTGAAAAGTTGTTATCACTGGTCGTAAGACACTTTGGATGGGTTAAAGTTCTGCACGTAGAAGCAAAAGGC [T30G G55A] was 0.846; that for GAGACCGCAACTGAAAAGTTGTTATCAGTTGTCGTAAGACACTTTGGATGGGTTTAAGTTCTGCACGTAGAAGCAAAAGGC [C28G G55T] was 0.763.
The value for GAGACCGCAACTGAAAAGTTGTTATCACTTGTCGTTAGACACTTTGGATGGGTTGAGGTTCTGCACGTAGAAGCAAAAGGC [A36T A57G] was 0.841.
Turning to GAGACCGCAACTGAAAAGTTGTTATCACTTGACGTAATACACTTTGGATGGGTTGAAGTTCTGCACGTAGAAGCAAAAGGC [T32A G38T], the fraction ligated amounted to 0.825.
The result for GAGACCGCAACTGAAAAGTTGTTATCACTTGTGATAAGACACTTTGGATGGGTTGAAGTTCTGCACGTAGAAGCAAAAGGC [C33G G34A] reads 0.829.
The result for GAGACCGCAACTGAAAAGTTGTTATCATTTGTCGTAAGACACTTTGGATGGGTTGACGTTCTGCACGTAGAAGCAAAAGGC [C28T A57C] reads 0.744.
The result for GAGACCGCAACTGAAAAGTTGTTATTACTTGTCGTATGACACTTTGGATGGGTTGAAGTTCTGCACGTAGAAGCAAAAGGC [C26T A37T] reads 0.853.
As for GAGACCGCAACTGAAAAGTTGTTATTTCTTGTCGTAAGACACTTTGGATGGGTTGAAGTTCTGCACGTAGAAGCAAAAGGC [C26T A27T], the fraction ligated amounted to 0.808.
The value for GAGACCGCAACTGAAAAGTTGTCATCTCTTGTCGTAAGACACTTTGGATGGGTTGAAGTTCTGCACGTAGAAGCAAAAGGC [T23C A27T] was 0.804; that for GAGACCGCAACTGAAAAGTTGTTATCACTTGTTATAAGACACTTTGGATGGGTTGAAGTTCTGCACGTAGAAGCAAAAGGC [C33T G34A] was 0.855.
The value for GAGACCGCAACTGAAAAGTTGTTATCACTAGTCGTAAGACACTTTGCATGGGTTGAAGTTCTGCACGTAGAAGCAAAAGGC [T30A G47C] was 0.128.
The value for GAGACCGCAACTGAAAAGTTGTTATCACTTGTCGTAAGAAACTTAGGATGGGTTGAAGTTCTGCACGTAGAAGCAAAAGGC [C40A T45A] was 0.66; that for GAGACCGCAACTGAAAAGTTGTTATCTGTTGTCGTAAGACACTTTGGATGGGTTGAAGTTCTGCACGTAGAAGCAAAAGGC [A27T C28G] was 0.802.
With GAGACCGCAACTGAAAAGTTGTTATCACTTGTCGTAAGAGACATTGGATGGGTTGAAGTTCTGCACGTAGAAGCAAAAGGC [C40G T43A], the fraction ligated came to 0.817.
The value for GAGACCGCAACTGAAAAGTTGTTATCACTTGTAGTAAGACACTTTGGCTGGGTTGAAGTTCTGCACGTAGAAGCAAAAGGC [C33A A48C] was 0.784; that for GAGACCGCAACTGAAAAGTTGTTATCAGTTGTCGTAAGACACTGTGGATGGGTTGAAGTTCTGCACGTAGAAGCAAAAGGC [C28G T44G] was 0.778; that for GAGACCGCAACTGAAAAGTTGTTATCAGTTGTCGTAAGACACTCTGGATGGGTTGAAGTTCTGCACGTAGAAGCAAAAGGC [C28G T44C] was 0.778.
In the case of GAGACCGCAACTGAAAAGTTGTTATCGCTTGTCGTACGACACTTTGGATGGGTTGAAGTTCTGCACGTAGAAGCAAAAGGC [A27G A37C], the fraction ligated came to 0.817.
GAGACCGCAACTGAAAAGTTGTTATCTCCTGTCGTAAGACACTTTGGATGGGTTGAAGTTCTGCACGTAGAAGCAAAAGGC [A27T T29C]: the fraction ligated was 0.807.
With GAGACCGCAACTGAAAAGTTGTTATCACTCGTCGTAAGACACTGTGGATGGGTTGAAGTTCTGCACGTAGAAGCAAAAGGC [T30C T44G], the fraction ligated is 0.812.
The result for GAGACCGCAACTGAAAAGTTGTTATCATTTGTCGTGAGACACTTTGGATGGGTTGAAGTTCTGCACGTAGAAGCAAAAGGC [C28T A36G] reads 0.81; that for GAGACCGCAACTGAAAAGTTGTTATCACTTGTCGTAAGACACTTTGGTTGGGTTGATGTTCTGCACGTAGAAGCAAAAGGC [A48T A57T], 0.546; that for GAGACCGCAACTGAAAAGTTGTTATCACTCGTCGTAAGACACTTTGGATGGGTTTAAGTTCTGCACGTAGAAGCAAAAGGC [T30C G55T], 0.757.
In the case of GAGACCGCAACTGAAAAGTTGTTATCACTTGTCGCAAGACACTTTGGATGGGTTGCAGTTCTGCACGTAGAAGCAAAAGGC [T35C A56C], the fraction ligated came out at 0.759.
For the variant GAGACCGCAACTGAAAAGTTGTTATGACTTGTCGCAAGACACTTTGGATGGGTTGAAGTTCTGCACGTAGAAGCAAAAGGC [C26G T35C], the fraction ligated was found to be 0.772.
The result for GAGACCGCAACTGAAAAGTTGTTATCACTAGTCGTAAGGCACTTTGGATGGGTTGAAGTTCTGCACGTAGAAGCAAAAGGC [T30A A39G] reads 0.805; that for GAGACCGCAACTGAAAAGTTGTTATCATTTGTCGTAAGACACGTTGGATGGGTTGAAGTTCTGCACGTAGAAGCAAAAGGC [C28T T43G], 0.8.
The result for GAGACCGCAACTGAAAAGTTGTTGTCACTTGTCGTAAGACACTTTGAATGGGTTGAAGTTCTGCACGTAGAAGCAAAAGGC [A24G G47A] reads 0.684.
The value for GAGACCGCAACTGAAAAGTTGTTATCACTTGTCGTAAGACAGGTTGGATGGGTTGAAGTTCTGCACGTAGAAGCAAAAGGC [C42G T43G] was 0.827; that for GAGACCGCAACTGAAAAGTTGTTATCACTTGTCGTAAGACACTTCGGATGGGTTCAAGTTCTGCACGTAGAAGCAAAAGGC [T45C G55C] was 0.0438.
For the variant GAGACCGCAACTGAAAAGTTGTTATCACTTGTCGTAAGACACTTTGGATGGGTTTAGGTTCTGCACGTAGAAGCAAAAGGC [G55T A57G], the fraction ligated came out at 0.791.
The result for GAGACCGCAACTGAAAAGTTGTTATCACGTGTCCTAAGACACTTTGGATGGGTTGAAGTTCTGCACGTAGAAGCAAAAGGC [T29G G34C] reads 0.808.
